Results reported in the RNAGym collection of RNA variant scans (doi:10.1073/pnas.2313332121).
Fewer inactive variants are shown than the library holds.

B1: TPR 5TU (parent)
chain: GGAUCUUCUCGAUCUAACAAAAAAGACAAAUCUGCCACAAAGCUUGAGAGCAUCUUCGGAUGCAGAGGCGGCAGCCUUCGGUGGCGCGAUAGCGCCAACGUUCUCAACUAUGACACGCAAAACGCGUGCUCCGUUGAAUGGAGUUUAUCAUG

Variants of: B1
Test: polymerase ribozyme fitness, log enrichment relative to wild type (log ratio); higher = more active; in vitro selection for triplet polymerase activity
How it was run: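 One round of in vitro selection, in triplicate, was applied to PCR-built, transcribed mutant libraries of each subunit of a heterodimeric triplet polymerase ribozyme. The steps were annealing with a biotinylated primer, partner subunit and triplets, incubation frozen at −7 °C, gel excision of extended constructs, streptavidin-bead capture and RT-PCR. Fitness is the logarithm, base 2, of genotype enrichment over wild-type enrichment from inverse-variance-weighted replicate averages of Illumina-sequenced inputs and outputs, keeping genotypes with ≥10 input reads and ≥1 read per output.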

Variant | polymerase ribozyme fitness (log ratio)
A24U C76A C85A | -1.65
C27U C54G G84A C95G A122G | -2.89
A26G G58C A60G U82C C93G A98U C103A C105G G143U | ≤ -4.2
G25C A52G U56A A60C G67A C99U C116U G133C U135A | ≤ -4.2
C27G G46A A64C U77G G88U A121U | ≤ -4.2
A26C C85G C118A | -3.99
A28C C38A G46A A66C G71U U127G | ≤ -4.2
A26C C32U G48C G143A | ≤ -4.2
C27A U56G A60U G86U A97G U111G C132A U135G | ≤ -4.2
C27U A60G C93A C125G G136A | -2.85
C27U G46A C54U C85G | -3.63
A26C U33A G92C C105G | ≤ -4.2
A26U U55G G88U G94A G124A C125G G126A A142U | ≤ -4.2
C27U C96A C105G | -2.96
A26U A107G G141A | ≤ -4.2
G25A C87G A98U | ≤ -4.2
C27U A37G U104G | -4.08
G25A A49G C95U | -2.94
C27G A40C A66G C79U A91C | -4.03
C27A C43A A66U C93G G140U G141A U146G | ≤ -4.2
G25U C36U C54G | -4.13
G25U A28U G50A G83C C87G A89U A91G | ≤ -4.2
C27U U101C | -0.938
C27G U78A G83U A91U G94C U135G G136C | -4.03

Variant | polymerase ribozyme fitness (log ratio)
A24U C114G | -3.34
A26C G59U A60C U145A | -2.83
C27G U44G A89C A142U | ≤ -4.2
C27U G70C A138G | ≤ -4.2
A26U U53A C76A G124U U145C | ≤ -4.2
A24U U31C C38U U82A G84A | 0.365
A26U C63G G80C C85G U109G A122U | ≤ -4.2
C27U C32U A40U A49C C54U C87U A89U A98U | ≤ -4.2
C27G C85U A91U U109A C118A U127C | ≤ -4.2
G25A A40G C43U G62C C85U G86A C95A G133U | ≤ -4.2
A26C A30G U45A A60G A97U U104G G143U | ≤ -4.2
A26C G59A C76U G84U G88A G126A | ≤ -4.2
A26C C131U | -0.797
C27U A37C U56G | -2.92
C27A C36U G74C C75G G84U C93G A97C G117A | ≤ -4.2
A28G A37U C57A C123U G143C | ≤ -4.2
A28C G124C | ≤ -4.2
G25C A64U C125G | ≤ -4.2
C27G U53A U55A A91G C103G A137U | ≤ -4.2
G25C A119C G136A | -3.75
C27A C43A A60U C87A G143U | ≤ -4.2
A24U C79A | -4.12
A24U G42A U53A U90G A107U C108A U145C | ≤ -4.2
A24U C96A | 0.632

Variant | polymerase ribozyme fitness (log ratio)
C27U C131U | 0.137
C27U A73G C79A G140C | ≤ -4.2
A26G A41G A60U U90G C99A G143U U151C | ≤ -4.2
C27G G50A G58A G83U | ≤ -4.2
C27U U53A G70U | -3.43
C27G A41U C87U A150C | -3.92
G25U U31A A64C U90A G124A | ≤ -4.2
A28C C87A A107C | ≤ -4.2
A26G C35U A37U C76A U78A | ≤ -4.2
G25U G58U C69A G71C G94U G100C | ≤ -4.2
G25C C99U C114G C118U | ≤ -4.2
A24U C27G C38U C87U A91G C93G G133U | ≤ -4.2
A26C C38A G48U C63G C75U C87A C105A | ≤ -4.2
A26G C36G C57A G94U A142U G152C | ≤ -4.2
C27A A41G C54A C72G C103G G133U G141U U144A U145G | ≤ -4.2
C27G C38A G42A G62A G68A A122C G128A U146G | -4.01
C27A A107G | ≤ -4.2
C27G G143C A150G | ≤ -4.2
C27U U44A C54U U56A A60U U82A C85U A97C C105G A110C C118A | ≤ -4.2
A26C G65C G84A A89C G141C | ≤ -4.2
C27A U134G U139A | ≤ -4.2
C27G U33C U55A A97C A121G | ≤ -4.2
G25C A28C C32A A110G G126C | ≤ -4.2
A26U G42C C72A C93A C116U | ≤ -4.2

Variant | polymerase ribozyme fitness (log ratio)
A28C G68A G92C A122G C132G | -3.62
A26U G80A | -2.3
G25C U44A A66G G71A A91U C131U C132G | ≤ -4.2
G25C A41C C96G A110G U148C | ≤ -4.2
A26G A40C G68U | ≤ -4.2
C27U U56A | -1.67
G25C C57U | -2.94
A26G C93A G124A | -4.18
A26G U53A | -4.06
A26U C69U | -1.87
C27U U53A | -2.76
C27G G152A | ≤ -4.2
G25U G58U G84A | -2.21
A28C G50A A97U G124A A138C | ≤ -4.2
C27G A29G A41C G67A G74A | ≤ -4.2
C27U A47G U77A C85U U146C | ≤ -4.2
A28C C32U U45A U61G U78G G92C C93A U101G C132A A150C | ≤ -4.2
A24U C57G G92U A147U | -0.341
C27G U61A C93U C95U A97U G133U | ≤ -4.2
C27A A60G C75U C87U G100A C116U U148A | ≤ -4.2
C27U G128A | -4.04
A26C A29G C51U U53G G68A A142C A150G G152A | ≤ -4.2
A26C C27G A52C G80U A89G | ≤ -4.2
C27U C54G C87U G92A C118A U144G | -3.12

Variant | polymerase ribozyme fitness (log ratio)
G25U C87U | -2.63
A26U A29U G62U C99U C125U U134A | -4.08
A26U U31G C36U G81U C149G | ≤ -4.2
A26U G34U G88C C105U U130A | ≤ -4.2
A26C C87A | ≤ -4.2
G25U C43U U53A C87A A91C G140A | ≤ -4.2
C27U A41C A73G C75U C93A | ≤ -4.2
C27U U55G C85U A89U | -2.33
G25C U53G C57A A120C G128A | ≤ -4.2
A26U U45A A47C U61G C79G G80U A122G C129G | ≤ -4.2
A24U C27A G42C C75A U82G C96U C108A A138C | ≤ -4.2
C27G C43A C72U C93A C125G G133U G143A | ≤ -4.2
C27U A30U U55A G65U U102C A110G U111G C131A U134A | ≤ -4.2
C27G C75A C79G G92U A121C C131G A147C | ≤ -4.2
A28C A37G A47G A66C G86A A107U U135C | ≤ -4.2
A26G C85G G88C C125U G136A | ≤ -4.2
C27A U44A U45A C93G | -4.2
C27U C32G G50A C69A A97G U135G G140A | ≤ -4.2
C27U A30C C87G G128A C131A U134C G141U | -4.13
A26U C85U C96U G143U | -3.94
A26C C27U C57A G68C C131G | ≤ -4.2
G25A U31A C51U G81C G84U G152U | ≤ -4.2
A24U C38A | 0.851
G25C G83A A107C U134G | ≤ -4.2

Variant | polymerase ribozyme fitness (log ratio)
A26G A97G | -3.72
G25U C43U U61A G84U C85A A89U C93A C103A G141U | ≤ -4.2
C27G C76U G83A C85G A107U A119U G141A | ≤ -4.2
A26G G68A C85G A120C | ≤ -4.2
G25U G86A | -3.14
C27U G58A C63A G84U | -2.45
A26U G59C U61A C75G A138C | ≤ -4.2
A28C G67C C87A U109A | ≤ -4.2
A26U U55A A60C | ≤ -4.2
A26C U55G G59C | -2.72
C27U U31C A52G U134C | -0.377
C27U C36U C57U G58A C96A A121U G140A | ≤ -4.2
A26U G141U U144G | -3.78
G25U C116U A122U | -4.04
A26C G94C | -1.54
A26C G94A | -1.36
A26U G50C C105A U109G C129U | ≤ -4.2
A24U U53A | -0.894
G25A C85A C95U | -2.49
A26U G42C G50U C93A A115U G117C | ≤ -4.2
G25A U44G C85U A106C | ≤ -4.2
G25A C79G U90A U104A G117U | ≤ -4.2
A26C G50A G67A G70C G83U C87U U90C | ≤ -4.2
A28G A37C A41C C69A C85U G133C | ≤ -4.2

Variant | polymerase ribozyme fitness (log ratio)
A28C C38A G48C A73G U144C | ≤ -4.2
C27U G62C C63U G94U U104C G152U | ≤ -4.2
A24U C35U C96U C105U A147G | -3.09
A26U A40U A120U | -2.33
A26G G48C A49G A73G C76U G83C G92U U148C | ≤ -4.2
C27G C95U | -3.51
A24U G141A | 0.58
C27A C36G A91U C99U | ≤ -4.2
C27G U77A G86U A115G C131U G143C U151G | ≤ -4.2
A26U C116U | -1.09
C27G U56A C99A | ≤ -4.2
A24U G65U A91C U104A A110G G140A U144G | ≤ -4.2
C27U A29C U44A U55A C95G G117U | ≤ -4.2
C27G G58U C76A G86A U90C A106U C125U G136C | ≤ -4.2
G25U C87U A122G | -3.5
A24U C35A U45G A47C G48C A64C C93G | ≤ -4.2
G25U G84U G117A | -3.67
A26U C103A | ≤ -4.2
G25U A49U G50C U61A C95U | -3.07
A26C U78C | -3.76
A28C C54A G100A | ≤ -4.2
A26C A29U C54G A91G A97U | ≤ -4.2
A26U A60C G80C A91U A121C | ≤ -4.2
